This is an account of results in patent US20210277118A1 (Daiichi Sankyo, published 2021).

Changes are numbered by the printed parent chain. In names and notes the source's numbering stands.

The target of assay [1] is T1, human CD3 expressed on T cells (Jurkat cells, human pan T cells/PBMC) (human, UniProt P07766 23-207).
T1 construct: whole, on cells; On T cells CD3 epsilon stands in the CD3 complex with the gamma, delta and zeta chains and the T-cell receptor; only the epsilon chain is written out; also called CD3+ Jurkat cells; human T cells
T1 sequence (P07766 23-207): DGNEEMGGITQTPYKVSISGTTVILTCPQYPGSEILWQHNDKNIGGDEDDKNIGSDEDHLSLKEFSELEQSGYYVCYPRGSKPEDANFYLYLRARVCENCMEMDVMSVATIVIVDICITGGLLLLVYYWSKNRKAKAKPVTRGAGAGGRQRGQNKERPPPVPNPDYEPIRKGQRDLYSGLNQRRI
Nature of the assay: cell ELISA on CD3+ Jurkat cells. As to the method: Cells were centrifuged and seeded in a 96-well filter plate in 50% complete culture medium/50% Blocking buffer. Equal volumes of 2× anti-CD3 scFv-Fc constructs or controls were added to cells and incubated for 1 hour. The plate was washed 4 times using vacuum filtration. An HRP-conjugated anti-human IgG Fc gamma specific secondary antibody was added to the wells and further incubated for 1 hour. The plate is washed 7 times by vacuum filtration followed by the addition of TMB substrate at room temperature. The reaction was stopped by adding 1 M sulfuric acid and supernatant was transferred into a clear 96-well plate. Absorbance (450 nm) was read on a Spectramax 340PC plate reader with path-check correction. Binding of the different scFv-Fc constructs to Jurkat cells and the apparent binding affinities are shown in FIG. 7 and Table 7, respectively.

For assay [2], the target named is T1, human CD3 expressed on T cells (Jurkat …). Nature of the assay: flow cytometry on human T cells. Here is the method: Frozen human pan T cells or PBMCs were thawed and incubated with either media or serial dilutions of the anti-CD3 scFv-Fc constructs for one hour at 4° C. Commercially available SP34-2 antibody was used as positive controls while untreated cultures were used as negative controls. Following incubation with the anti-CD3 scFv constructs, the cells were washed and stained with a panel of conjugated antibodies specific for CD4, CD8, and IgG-Fc. The samples were acquired on a flow cytometer and analyzed using FlowJo version 10.1 software.

In assay [3] the target is T2, cynomolgus monkey CD3 expressed on T cells (cynomolgus pan T cells/PBMC, HSC-F cell line) (cynomolgus monkey, UniProt Q95LI5 22-198).
T2 construct: whole, on cells; On T cells in the CD3 complex with the other subunits; only the epsilon chain is written out; also called cyno CD3; cyno T cells
T2 sequence (Q95LI5 22-198): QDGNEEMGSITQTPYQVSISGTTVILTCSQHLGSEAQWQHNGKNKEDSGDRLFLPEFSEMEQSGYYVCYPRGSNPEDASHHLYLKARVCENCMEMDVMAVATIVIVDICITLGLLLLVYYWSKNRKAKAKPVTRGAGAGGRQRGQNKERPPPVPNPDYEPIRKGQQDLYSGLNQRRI
As to the kind of experiment: flow cytometry on cynomolgus T cells. As to the method:
(§1) Frozen Cynomolgus monkey PBMCs were thawed then washed with RPMI-1640 media. Pan T cells were then isolated from the PBMCs using a negative isolation kit (Miltenyi Biotec, San Diego, Calif.) as per the manufacturer's instructions. The pan T cells were incubated in media alone or media containing serial dilutions of the anti-CD3 scFv-Fc constructs for one hour at 4° C. Commercially available SP34-2 antibody was used as positive controls while untreated cultures were used as negative controls. Following incubation with the anti-CD3 scFv constructs, the cells were washed and stained with a panel of conjugated antibodies specific for CD4, CD8, and IgG-Fc. The samples were acquired on a flow cytometer and analyzed using FlowJo version 10.1 software.
(In general: In flow cytometry, cells or beads pass a laser one at a time.)

Assay [4] deals with T3, Recombinant CD3epsilon/delta Fc fusion protein (Sino Biological) (human, UniProt P07766 23-126; P04234 22-105).
T3 construct: Bought reagent; also called recombinant CD3 fusion protein; human CD3 antigen; not shown: Fc of the bought fusion protein; not described
T3 sequence (P07766 23-126, stated change not applied, chain 1 of 2): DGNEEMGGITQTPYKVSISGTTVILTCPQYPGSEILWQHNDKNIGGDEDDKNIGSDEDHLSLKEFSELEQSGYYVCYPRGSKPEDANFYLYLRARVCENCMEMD
T3 sequence (P04234 22-105, stated change not applied, chain 2 of 2): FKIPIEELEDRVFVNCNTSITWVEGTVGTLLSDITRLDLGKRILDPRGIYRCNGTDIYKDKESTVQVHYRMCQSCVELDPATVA
Nature of the assay: SPR (ProteOn XPR36), Equilibrium Fit, mean of three runs. Here is the method:
(§2) All SPR binding experiments were carried out using a BioRad ProteOn XPR36 instrument (Bio-Rad Laboratories, Hercules, Calif.) at 25° C. with 10 mM HEPES, 150 mM NaCl, 3.4 mM EDTA, and 0.05% Tween 20 at pH 7.4. Recombinant CD3epsilon/delta Fc fusion protein (Sino Biological, Wayne, Pa.) was captured on anti-Fc capture sensorchips. Purified antibodies were indirectly captured on the sensorchip by binding the recombinant CD3 fusion protein when injected at 25 μL/min for 240s (resulting in approx. 500 RUs) following a buffer injection to establish a stable baseline. Resultant KD values were determined from binding isotherms using the Equilibrium Fit model with reported values as the mean of three independent runs.

The target in assay [5] is T3, Recombinant CD3epsilon/delta Fc fusion …. As to the kind of experiment: SPR (ProteOn XPR36), CD3epsilon/delta Fc fusion captured on anti-Fc chip, variant injected for 240 s; kinetic constants printed above the sensorgrams. Here is the method:
as §2

Assay [6] concerns the target T2, cynomolgus monkey CD3 expressed on T …. As to the kind of experiment: flow cytometry on cynomolgus pan T cells gated CD4+, detection with anti-IgG-Fc, geo MFI. Here is the method: as §1

B1: variant 19363, monovalent anti-CD3 scFv-heterodimeric Fc (VL hC3E-1_6L3a (D52N), VH hC3E-1) (Fc fusion, not shown: a dimerising Fc or GST; small tags and cut ends)
scFv: EVQLVESGGGLVQPGGSLRLSCAASGVTFNYYGMSWIRQAPGKGLEWVASITNSGGRIYYPDSVKGRFTISRENTQKTLYLQMNSLRAEDTAVYYCTLDGRDGWVAYWGQGTLVTVSSGGGGSGGGGSGGGGSQFVLTQPPSASGTPGQRVTISCKRNTGNIGSNYVNWYQQLPGTAPKTIIYRNDKRPDGVPDRFSGSIDSSSNSASLAISGLQSEDEADYYCQSYSSGFIFGGGTKLTVL
notes: scFv order VH-(GGGGS)3-VL on Fc chain A; chain B is Fc only; also called v19363
As to B1, the concentration giving a half-maximal response (EC50) – broadly, the concentration at which the effect is half-maximal – in assay [1] stood at 1.45 nM; in assay [2], 0.7 nM; in assay [3] it was 7.1 nM. Besides, the equilibrium dissociation constant (Kd) (as a rule, a measure of binding affinity in units of concentration) in assay [4] was 6.6 nM; in assay [5], 6.62 nM. Further, the koff (usually the rate constant with which the complex falls apart) in assay [5] amounted to 0.00383 s⁻¹. The association rate constant (kon) – broadly, the rate constant with which the complex forms – in assay [5] stood at 578000 M⁻¹ s⁻¹.

B2: variant 19362, monovalent anti-CD3 scFv-heterodimeric Fc (VL hC3E-1_6L3b (D52N), VH hC3E-1) (Fc fusion, not shown: a dimerising Fc or GST; small tags and cut ends)
scFv: B1 scFv with Q134N, V136M, P141H, A143V, G145E, T146S, Q149K, R150T
notes: scFv order VH-(GGGGS)3-VL on Fc chain A; chain B is Fc only; also called v19362
As to B2, the EC50 in assay [1] was 1.35 nM; in assay [2] it was roughly 0.6 nM; in assay [3], 1.9 nM. In addition, the Kd was found to be 3 nM in assay [4] and 3.03 nM in assay [5]. In addition, the concentration giving a half-maximal response (EC50 (read off the curve)) (in general, the midpoint of the concentration-response curve) in assay [6] is roughly 2 µg/mL. In assay [5], the off-rate constant (koff) amounted to 0.00242 s⁻¹. For the same molecule, the association rate constant (kon) in assay [5] amounted to 798000 M⁻¹ s⁻¹.

B3: variant 18346, monovalent anti-CD3 scFv-heterodimeric Fc (VL hC3E-1 wildtype, VH hC3E-1 wildtype) (Fc fusion)
scFv: EVQLVESGGGLVQPGGSLRLSCAASGVTFNYYGMSWIRQAPGKGLEWVASITNSGGRIYYPDSVKGRFTISRENTQKTLYLQMNSLRAEDTAVYYCTLDGRDGWVAYWGQGTLVTVSSGGGGSGGGGSGGGGSNFMLTQPHSVSESPGKTVTISCKRNTGNIGSNYVNWYQQHEGSSPTTIIYRDDKRPDGVSDRFSGSIDRSSKSASLTISNLKTEDEADYFCQSYSSGFIFGGGTKLTVL
notes: scFv order VH-(GGGGS)3-VL on Fc chain A; chain B is Fc only; also called v18346; parental construct v18346; not shown: Fc-only chain B is also left out
On to B3, for which the concentration giving a half-maximal response (EC50) is 0.34 nM in assay [1], roughly 0.3 nM in assay [2] and 1.4 nM in assay [3]. Also, the figures for the Kd in assay [4] and in assay [5] were 0.26 nM and 0.117 nM, respectively. The “EC50 (read off the curve)” value in assay [6] is roughly 1 µg/mL. The koff in assay [5] is 0.000163 s⁻¹. Moreover, the kon in assay [5] is 1.39e+06 M⁻¹ s⁻¹.

B4: variant 18596, monovalent anti-CD3 scFv-heterodimeric Fc (VL hC3E-1, VH hC3E-1a D102E) (Fc fusion, not shown: a dimerising Fc or GST; small tags and cut ends)
scFv: B3 scFv with D102E
notes: scFv order VH-(GGGGS)3-VL on Fc chain A; chain B is Fc only; also called v18596
In the case of B4, the results for the concentration for a half-maximal effect (EC50) in assay [1], in assay [2] and in assay [3] were 2.57 nM, 69.5 nM and 172 nM, respectively. For the same molecule, the Kd in assay [4] amounted to 9 nM.

B5: variant 21826, monovalent anti-CD3 scFv-heterodimeric Fc (VL hC3E-1 (D52N), VH hC3E-1(N53R_D102E)) (Fc fusion)
scFv: B3 scFv with N53R, D102E, D185N
notes: scFv order VH-(GGGGS)3-VL on Fc chain A; chain B is Fc only; also called v21826; not shown: Fc-only chain B is also left out
As to B5, the concentration for a half-maximal effect (EC50) was roughly 36100 nM in assay [1], 1.7 nM in assay [2] and 2.5 nM in assay [3].

B6: variant 21828, monovalent anti-CD3 scFv-heterodimeric Fc (VL hC3E-1 (D52N), VH hC3E-1(N53S_D102E)) (Fc fusion)
scFv: B3 scFv with N53S, D102E, D185N
notes: scFv order VH-(GGGGS)3-VL on Fc chain A; chain B is Fc only; also called v21828; not shown: Fc-only chain B is also left out
As to B6, the EC50 is roughly 32.8 nM in assay [1], 1.6 nM in assay [2] and 104 nM in assay [3].

B7: variant 18343, monovalent anti-CD3 scFv-heterodimeric Fc (VL hC3E-1-1L1, VH hC3E-1) (Fc fusion, not shown: a dimerising Fc or GST; small tags and cut ends)
scFv: EVQLVESGGGLVQPGGSLRLSCAASGVTFNYYGMSWIRQAPGKGLEWVASITNSGGRIYYPDSVKGRFTISRENTQKTLYLQMNSLRAEDTAVYYCTLDGRDGWVAYWGQGTLVTVSSGGGGSGGGGSGGGGSQSVLTQPPSASGTPGQRVTISCKRNTGNIGSNYVNWYQQLPGTAPKLLIYRDDKRPDGVPDRFSGSKSGTSASLAISGLQSEDEADYYCQSYSSGFIFGGGTKLTVL
notes: scFv order VH-(GGGGS)3-VL on Fc chain A; chain B is Fc only; also called v18343
B7 displayed an EC50 in assay [1] of 2.61 nM. The dissociation constant (Kd) in assay [4] came out at 30 nM.

B8: variant 19370, monovalent anti-CD3 scFv-heterodimeric Fc (VL hC3E-1_1L1d, VH hC3E-1) (Fc fusion, not shown: a dimerising Fc or GST; small tags and cut ends)
scFv: B7 scFv with S135V
notes: scFv order VH-(GGGGS)3-VL on Fc chain A; chain B is Fc only; also called v19370
For the molecule B8, the half-maximal effective concentration (EC50) in assay [1] came out at 3.09 nM; in assay [2], 0.7 nM; in assay [3], 2.4 nM. Besides, the Kd in assay [4] stood at 6.8 nM.

B9: variant 19371, monovalent anti-CD3 scFv-heterodimeric Fc (VL hC3E-1_1L1c, VH hC3E-1) (Fc fusion)
scFv: B7 scFv with S135I
notes: scFv order VH-(GGGGS)3-VL on Fc chain A; chain B is Fc only; also called v19371; not shown: The Fc-only chain B is not tied by number to this variant
In the case of B9, the half-maximal effective concentration (EC50) in assay [1] is 1.72 nM; in assay [2], 0.5 nM; in assay [3] it was 3.4 nM. Also, the Kd in assay [4] came to 7.1 nM.

B10: variant 21827, monovalent anti-CD3 scFv-heterodimeric Fc (VL hC3E-1_1L1d, VH hC3E-1(N53S_D102E)) (Fc fusion)
scFv: B7 scFv with N53S, D102E, S135V
notes: scFv order VH-(GGGGS)3-VL on Fc chain A; chain B is Fc only; also called v21827; not shown: Fc-only chain B is also left out
With B10, the concentration for a half-maximal effect (EC50) turned out to be 1.9 nM in assay [2] and 16.3 nM in assay [3].

B11: variant 21829, monovalent anti-CD3 scFv-heterodimeric Fc (VL hC3E-1_1L1d, VH hC3E-1(N53R)) (Fc fusion)
scFv: B7 scFv with N53R, S135V
notes: scFv order VH-(GGGGS)3-VL on Fc chain A; chain B is Fc only; also called v21829; not shown: Fc-only chain B is also left out
In the case of B11, the EC50 in assay [1] amounted to 0.65 nM; in assay [2] it was 0.4 nM; in assay [3] it was 1.6 nM. The dissociation constant Kd in assay [4] turned out to be 3.06 nM; in assay [5], 3.12 nM. Moreover, in assay [5], the koff was found to be 0.00382 s⁻¹. In addition, the kon in assay [5] came out at 1.22e+06 M⁻¹ s⁻¹.

B12: variant 19373, monovalent anti-CD3 scFv-heterodimeric Fc (VL hC3E-1_1L1a, VH hC3E-1) (Fc fusion)
scFv: B7 scFv with S135F
notes: scFv order VH-(GGGGS)3-VL on Fc chain A; chain B is Fc only; also called v19373; not shown: The Fc-only chain B is not tied by number to this variant
Molecule B12 showed a 50% effective concentration (EC50) in assay [1] of 0.99 nM. The Kd in assay [4] came to 3 nM.

B13: variant 21825, monovalent anti-CD3 scFv-heterodimeric Fc (VL hC3E-1_1L1d, VH hC3E-1(N53R_D102E)) (Fc fusion)
scFv: B7 scFv with N53R, D102E, S135V
notes: scFv order VH-(GGGGS)3-VL on Fc chain A; chain B is Fc only; also called v21825; not shown: Fc-only chain B is also left out
B13 displayed a concentration for a half-maximal effect (EC50) in assay [3] of 7 nM.

B14: variant 19372, monovalent anti-CD3 scFv-heterodimeric Fc (VL hC3E-1_1L1b, VH hC3E-1) (Fc fusion)
scFv: B7 scFv with S135L
notes: scFv order VH-(GGGGS)3-VL on Fc chain A; chain B is Fc only; also called v19372; not shown: The Fc-only chain B is not tied by number to this variant
As to B14, the concentration for a half-maximal effect (EC50) amounted to 3.47 nM in assay [1], 0.9 nM in assay [2] and 9.3 nM in assay [3]. Also, in assay [4], the equilibrium dissociation constant (Kd) turned out to be 3.1 nM.
